Positions count from the first letter of the chain named. Names may count otherwise.
Columns and labels:
[1] = system: GFPY40 reporter in 3H7 cells; test: Amber suppression-dependent GFP expression (GFPY40 reporter), transient transfection of 3H7 cells, flow cytometry; type: cell-based; settings: three days; for GFP MFI, FIG. 11: 1 ug GFPY40 and 1 ug tRNA expression vector, lys-azide; for GFP MFI in the absence of nnAA, FIG. 6: no nnAA
Protocol: To assess the function of the tRNA variants, an in vitro assay was established where cells are transiently transfected with a tRNA construct and a reporter construct encoding GFP containing an amber codon interrupting its reading frame (GFPY40). HEK293 cells stably expressing pylRS were transiently transfected with various tRNA constructs (1 ug) and the GFPY40 reporter (1 ug). In the absence of elements that support amber suppression, a truncated GFP protein is generated and the cell is not fluorescent. However, the introduction of a functional tRNA and the presence of a nnAA that supports amber suppression allows for the production of full length GFP resulting in fluorescent cells. The level of GFP expression reflects the efficiency of amber suppression and is quantified by flow cytometry. tRNA genes encoding wild type tRNApyl (WT tRNA), or containing mutations in the B-box (B tRNA—SEQ ID No 9), in both the A and B box (A2B tRNA—SEQ ID No 10), or in the A box (A1 tRNA-SEQ ID No 7; or A2 tRNA SEQ ID No 11), all under control of the H1 promoter were generated by site directed mutagenesis and assayed. The H1 promoter ensured that the variants were expressed and allowed us to examine the functional effects of the mutations introduced into the tRNA genes. In addition a sample transfected with GFPY40 alone was generated to establish background GFP levels. The transfected cells were grown in presence of the aminoacid analogue lys azide (2 mM) and incubated for 18 hours. GFP fluorescence was then assayed by flow cytometry and mean fluorescence intensity determined for each sample. Data were analysed with FCS Express and the mean fluorescence intensity of each sample determined using markers that constrain the data set to cells showing fluorescence above negative controls. […] The constructs thus are functional and may contain the necessary genetic sequence to enable the expression of the tRNA also in the absence of an upstream promoter element such as the H1 promoter.
Having established that the B mutation introduced into the pyltRNA sequence enabled expression of the tRNA that supported amber suppression we then asked whether this mutation affected the orthogonality of the tRNA and led to the incorporation of natural amino acids. To do this 3H7 cells were transiently transfected with expression constructs encoding WT-tRNA, B-tRNA, H1-tRNA and H1-B tRNA along with the GFPY40 reporter. Transfected cells were grown in the presence of 2 mM lys azide or absence of nnAA as indicated (FIG. 6), and GFP expression assessed by flow cytometry after three days. In addition, a sample transfected only with GFPY40 was examined to determine background amber suppression levels in the absence of tRNA. […] A comparison of GFP expression between the WT tRNA (MFI 33,781) and tRNA B (232,505) lacking extragenic promoter elements confirms that the B mutation generates a functional intragenic promoter. Indeed, the B tRNA construct enabled a seven-fold increase in the level of amber suppression dependent expression of GFP over WT tRNA.
We also tested the utility of a bicistronic tRNA expression construct for its ability to express tRNApyl. Here, the murine tRNA Glu and tRNA Asp were utilized. In each case, multiple repeats of the constructs were generated to increase activity (3×Glu-pyl and 2×Asp-pyl). Here, 3H7 cells were transiently transfected with 1 ug of the reporter construct GFPY40 and 1 ug of the indicated tRNA expression vectors (FIG. 11) and incubated with lys-azide for three days. Data were collected by flow cytometry and mean fluorescence intensities for each sample were plotted. […] The construct consisting of the 7SL WT tRNA (MFI=312) was included as a metric for low efficiency. In addition cell lines containing only the GFPY40 reporter were used as negative controls (MFI=0).

[2] = system: GFPY40 reporter (GFP containing an amber codon) in HEK293 cells stably expressing pylRS; test: Amber suppression-dependent GFP expression (GFPY40 reporter), transient transfection, flow cytometry; type: cell-based; settings: for GFP MFI, FIG. 9: 1 ug GFPY40 reporter and 1 ug tRNA expression plasmid; for GFP MFI, FIG. 8: 1 ug PCR product of each construct, lys azide nnAA; for GFP MFI, FIG. 10: cells stably expressing WTpylRS, lys azide; for GFP MFI, single copy tRNA, FIG. 7 / GFP MFI, tandem copies of tRNA, FIG. 7: cells expressing WTpylRS, after two days; for GFP MFI, tandem copies of tRNA, FIG. 7: single vector containing two copies in tandem
Protocol: To assess the function of the tRNA variants, an in vitro assay was established where cells are transiently transfected with a tRNA construct and a reporter construct encoding GFP containing an amber codon interrupting its reading frame (GFPY40). HEK293 cells stably expressing pylRS were transiently transfected with various tRNA constructs (1 ug) and the GFPY40 reporter (1 ug). In the absence of elements that support amber suppression, a truncated GFP protein is generated and the cell is not fluorescent. However, the introduction of a functional tRNA and the presence of a nnAA that supports amber suppression allows for the production of full length GFP resulting in fluorescent cells. The level of GFP expression reflects the efficiency of amber suppression and is quantified by flow cytometry. tRNA genes encoding wild type tRNApyl (WT tRNA), or containing mutations in the B-box (B tRNA—SEQ ID No 9), in both the A and B box (A2B tRNA—SEQ ID No 10), or in the A box (A1 tRNA-SEQ ID No 7; or A2 tRNA SEQ ID No 11), all under control of the H1 promoter were generated by site directed mutagenesis and assayed. The H1 promoter ensured that the variants were expressed and allowed us to examine the functional effects of the mutations introduced into the tRNA genes. In addition a sample transfected with GFPY40 alone was generated to establish background GFP levels. The transfected cells were grown in presence of the aminoacid analogue lys azide (2 mM) and incubated for 18 hours. GFP fluorescence was then assayed by flow cytometry and mean fluorescence intensity determined for each sample. Data were analysed with FCS Express and the mean fluorescence intensity of each sample determined using markers that constrain the data set to cells showing fluorescence above negative controls.
To begin to assess whether the tRNA mutations can support expression of the tRNA we assayed tRNA constructs encoding the wild type tRNA in the absence of the H1 promoter. Constructs encoding wild type tRNApyl (WT tRNA) or containing mutations in the B-box (B tRNA—SEQ ID No 9) or in both the A and B box (A2B; A2B tRNA—SEQ ID No 10) were assayed using our in vitro amber suppression assay described above. WT tRNA under control of the H1 promoter (H1-tRNA) was used as a positive control, and in addition one sample was transfected only with the GFPY40 reporter to illustrate background amber suppression in the absence of tRNA. The transfected cells were exposed to 2 mM lys-azide nnAA and cells incubated for three days. GFP expression was examined by flow cytometry and mean fluorescence intensity determined.
Two copies of the WT, B, or A2B tRNA were cloned in tandem to generate a single vector containing two copies of WT, B, or A2B tRNA. To assess the effect of increased gene doses by these constructs, cells expressing WTpylRS were transiently transfected with the tRNA constructs and the GFPY40 reporter construct and GFP expression assayed after two days.
The activity of each construct was assessed by transient transfection into cells stably expressing WT pylRS with the GFPY40 reporter as described above. For this experiment, 1 ug of a PCR product encoding each of the indicated constructs was used. In each case, cells were exposed to the lys azide nnAA for three days and GFP levels assayed by flow cytometry. Mean fluorescence intensities were determined for each sample and plotted (FIG. 8).

[3] = 2 mM lys-azide nnAA, three days

B1: H1-tRNA: WT tRNApyl under control of the H1 promoter, positive control (nucleic acid)
DNA: AATATTTGCATGTCGCTATGTGTTCTGGGAAATCACCATAAACGTGAAATCCCTATCAGTGATAGAGACTTATAAGTTCCCTATCAGTGATAGAGACACCAGGAAACCTGATCATGTAGATCGAATGGACTCTAAATCCGTTCAGCCGGGTTAGATTCCCGGGGTTTCCGGACAAGTGCGGTTTTTTT
modifications: Synthetic sequence H1 tRNA-WT construct
[1]
  GFP MFI, FIG. 11: 453
  GFP MFI in the absence of nnAA, FIG. 6: 33,452
[1]; 2 mM lys azide
  GFP MFI in the presence of lys-azide, FIG. 6: 347,958
[2]
  GFP MFI, FIG. 9: 241,901
[2]; three days
  GFP MFI, FIG. 8: 828,503
  GFP MFI, FIG. 10: 453
[2]; [3]
  GFP mean fluorescence intensity (MFI), FIG. 5: 1,004,228.00

B2: B tRNA: tRNApyl Methanosarcina mazei with A52C mutation (B-box) (nucleic acid)
DNA: GGAAACCTGATCATGTAGATCGAATGGACTCTAAATCCGTTCAGCCGGGTTCGATTCCCGGGGTTTCCG
modifications: expressed or natural sequence
[1]; 2 mM lys azide
  GFP MFI in the presence of lys-azide, FIG. 6: 232,505
  increase in amber suppression dependent expression of GFP over WT tRNA (FIG. 6): seven-fold
[1]
  GFP MFI in the absence of nnAA, FIG. 6: 42,104
[2]
  GFP MFI, FIG. 9: 89,869
  GFP MFI, single copy tRNA, FIG. 7: 67,489
  GFP MFI, tandem copies of tRNA, FIG. 7: 110,941
[2]; [3]
  GFP mean fluorescence intensity (MFI), FIG. 5: 410,131.1
  fold higher expression of GFP than the wt tRNA construct (FIG. 5): four-fold
[2]; all tRNA variants under control of the H1 promoter, 1 ug construct + 1 ug GFPY40, lys azide 2 mM, 18 hours
  capacity to support amber suppression relative to H1 WT tRNA (FIG. 4): support amber suppression, albeit at a lower level than the WT tRNA
[2]; three days
  GFP MFI, FIG. 10: 329

B3: WT tRNA: wild type tRNApyl gene of Methanosarcina mazei without extragenic promoter (nucleic acid, listed as Methanosarcina mazei)
DNA: B2 DNA with C52A
modifications: expressed or natural sequence
notes: wild type tRNApyl gene of Methanosarcina mazei without extragenic promoter
[1]; 2 mM lys azide
  GFP MFI in the presence of lys-azide, FIG. 6: 33,781
[2]
  GFP MFI, FIG. 9: 25,459
  GFP MFI, single copy tRNA, FIG. 7: 18,002
  GFP MFI, tandem copies of tRNA, FIG. 7: 20,617
[2]; three days
  GFP MFI, FIG. 8: 117,626
[2]; [3]
  GFP mean fluorescence intensity (MFI), FIG. 5: 114,478.1

B4: 7SL WT tRNA: WT tRNApyl downstream of the 7SL promoter 5′ region (nucleic acid)
DNA: CCCAGTTGATGACGTCACCATACCACAGCTTCTAGTGCTATTCTGCGCCGGTATCCGACCACCAGGAAACCTGATCATGTAGATCGAATGGACTCTAAATCCGTTCAGCCGGGTTAGATTCCCGGGGTTTCCGGACAAGTGCGGTTTTT
modifications: Synthetic sequence 7SL tRNA-WT construct
notes: WT tRNApyl downstream of the 7SL promoter 5′ region
[1]
  GFP MFI, FIG. 11: 312
[2]; three days
  GFP MFI, FIG. 8: 106,075
  GFP MFI, FIG. 10: 312

B5: 7SL B tRNA: tRNA-B downstream of the 7SL promoter 5′ region (nucleic acid)
DNA: B4 DNA with A116C
modifications: Synthetic sequence 7SL tRNA-B construct
notes: tRNA-B downstream of the 7SL promoter 5′ region
[1]
  GFP MFI, FIG. 11: 520
[2]
  GFP MFI, FIG. 9: 167,024
[2]; three days
  GFP MFI, FIG. 8: 265,396
  GFP MFI, FIG. 10: 520
